This note sets out measurements from patent publication US20080193373A1.

Assay [1] has as its target SA-B3/OmpA fusion protein (E. coli OmpA with streptavidin binding ligand peptide SA-B3 inserted) (Escherichia coli). In words: magnetic separation (µMACS column) of a mixed E. coli Top10 culture with streptavidin-coated iron nanoparticles; counted as CFU on plates.
Assay [2] has the same target. In words: magnetic separation (µMACS column) of a mixed E. coli Top10 culture with streptavidin-coated iron nanoparticles; input mix was about 47% OmpA+/SA-B3+ and 53% OmpA+LUX+; counted as CFU on plates.

Sequence of SA-B3/OmpA fusion protein (E. coli OmpA with streptavidin binding ligand peptide SA-B3 inserted) (Escherichia coli) (chain, as listed by the source limits assumed): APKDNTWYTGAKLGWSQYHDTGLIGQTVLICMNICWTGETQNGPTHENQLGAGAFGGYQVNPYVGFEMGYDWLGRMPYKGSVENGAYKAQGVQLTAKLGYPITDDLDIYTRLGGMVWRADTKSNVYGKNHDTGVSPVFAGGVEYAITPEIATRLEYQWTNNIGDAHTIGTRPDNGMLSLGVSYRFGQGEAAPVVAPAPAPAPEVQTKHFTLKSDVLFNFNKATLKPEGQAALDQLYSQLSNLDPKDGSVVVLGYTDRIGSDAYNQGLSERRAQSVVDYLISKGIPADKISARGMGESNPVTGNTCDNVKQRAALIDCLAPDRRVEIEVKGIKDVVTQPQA

In assay [1], “Streptavidin-coated iron-nanoparticles (from UniProt P22629 37-163)” had a proportion of SA-B3-expressing bacteria lost on the columns and while washing of 7%. Besides, the proportion of bacteria expressing SA-B3 after magnetic separation in assay [2] came out at 92%.
